B2: FLAG-sortilin full-length (Full) (receptor)
chain: SAPDYKDDDDKGEDEECGRVRDFVAKLANNTHQHVFDDLRGSVSLSWVGDSTGVILVLTTFHVPLVIMTFGQSKLYRSEDYGKNFKDITDLINNTFIRTEFGMAIGPENSGKVVLTAEVSGGSRGGRIFRSSDFAKNFVQTDLPFHPLTQMMYSPQNSDYLLALSTENGLWVSKNFGGKWEEIHKAVCLAKWGSDNTIFFTTYANGSCKADLGALELWRTSDLGKSFKTIGVKIYSFGLGGRFLFASVMADKDTTRRIHVSTDQGDTWSMAQLPSVGQEQFYSILAANDDMVFMHVDEPGDTGFGTIFTSDDRGIVYSKSLDRHLYTTTGGETDFTNVTSLRGVYITSVLSEDNSIQTMITFDQGGRWTHLRKPENSECDATAKNKNECSLHIHASYSISQKLNVPMAPLSEPNAVGIVIAHGSVGDAISVMVPDVYISDDGGYSWTKMLEGPHYYTILDSGGIIVAIEHSSRPINVIKFSTDEGQCWQTYTFTRDPIYFTGLASEPGARSMNISIWGFTESFLTSQWVSYTIDFKDILERNCEEKDYTIWLAHSTDPEDYEDGCILGYKEQFLRLRKSSMCQNGRDYVVTKQPSICLCSLEDFLCDFGYYRPENDSKCVEQPELKGHDLEFCLYGREEHLTTNGYRKIPGDKCQGGVNPVREVKDLKKKCTSNFLSPEKQNSKSNSVPIILAIVGLMLVTVVAGVLIVKKYVCGGRFLVHRYSVLQQHAEANGVDGVDALDTASHTNKSGYHDDSDEDLLE
notes: signal peptide 1-33 is implied by that; Expressed in HEK293 cells; also called FLAG-sortilin WT; FLAG-sortilin wild-type

Data set [1] deals with the molecule itself. The data set can be described thus: non-reducing western blot; BS3 cross-linking, HEK293 cells. The text has this: In reducing western blotting, protein expressions of FLAG-sortilin Full, ECD+TMD and ICD+TMD were detected as bands of plausible molecular size (FIG. 2B). In non-reducing western blotting where disulfide bonds can be retained, FLAG-sortilin Full and ECD+TMD expressed a couple of bands (FIG. 2C). A band of 75-100 kDa was detected as monomers (FIG. 2C). Bands of approximately 200 kDa and higher molecular weight were detected as homodimers and multimers with intermolecular disulfide bonds (FIG. 2C). Next, FLAG-sortilin Full and ECD+TMD were cross-linked using water-soluble, non-cleavable cross-linker, BS3, in HEK293 cells. Both bands of homodimers and multimers appeared via the cross-linking (FIG. 2D). […] Dimerization of FLAG-sortilin ICD+TMD was not clearly detected in the non-reducing western blotting using whole cell lysate (FIG. 2C) potentially due to low protein expression levels of FLAG-sortilin ICD+TMD (FIGS. 2B, 2C). […] Therefore, it was determined whether FLAG-sortilin ICD+TMD can undergo degradation in proteasome and lysosome by adding proteasome inhibitor, MG-132, and lysosome inhibitor, chloroquine, to FLAG-sortilin ICD+TMD HEK293 cells, respectively. […] In non-reducing western blotting, bands with molecular size approximately twice as high as monomers of FLAG-sortilin ICD+TMD were detected (FIG. 2G). […]
On the technique in general: In western blotting, separated proteins are transferred to a membrane and probed.

Data set [2] concerns the molecule itself. The data set can be described thus: non-reducing western blot, HEK293 cells.
Data set [3] addresses B2. In words: TR-FRET and HTRF on HEK293 cells, anti-FLAG(M2)-Cryptate and anti-6HIS-XL665. Here is the method: TR-FRET and HTRF were performed as described (26). FLAG-sortilin Full HEK293 cells were harvested using dissociation solution (e.g., from Sigma Aldrich, Cat#C5914) 24 hours after transfection of 6×His-sortilin expression vector. An incubation under the circle rotator was performed at 4° C. with 1×10^6 cells/mL for TR-FRET and 2×10^6 cells/mL for HTRF containing 1 nmol/L Anti-FLAG® (M2)-Cryptate (Cisbio Bioassays, Cat#61FG2KLA, Lot#25A) and 3 nmol/L Anti-6HIS-XL665 (Cisbio Bioassays, Cat#61HISXLA, Lot#56A) in PBS supplemented with 25% FBS. For TR-FRET, cells were centrifuged at 1,000 rpm for 5 min to remove the antibodies, and resuspended in PBS, and applied into a 96-well white plate. For HTRF, cells were applied without removing the antibodies into a 96-well white plate. Then, the plate was read (excitation: 320 nm, emission: 620 nm (cutoff 570 nm), 665 nm (cutoff 630 nm), Delay […], Integration […]). The FRET signal was calculated as (the ratio of counts per seconds 665:620)×10,000, and % change of the FRET signal by 6×His-sortilin expression was expressed.
In general terms: Time-resolved FRET reads energy transfer from a long-lived donor to a nearby acceptor.

B1: FLAG-sortilin ECD+TMD (receptor)
chain: SAPDYKDDDDKGEDEECGRVRDFVAKLANNTHQHVFDDLRGSVSLSWVGDSTGVILVLTTFHVPLVIMTFGQSKLYRSEDYGKNFKDITDLINNTFIRTEFGMAIGPENSGKVVLTAEVSGGSRGGRIFRSSDFAKNFVQTDLPFHPLTQMMYSPQNSDYLLALSTENGLWVSKNFGGKWEEIHKAVCLAKWGSDNTIFFTTYANGSCKADLGALELWRTSDLGKSFKTIGVKIYSFGLGGRFLFASVMADKDTTRRIHVSTDQGDTWSMAQLPSVGQEQFYSILAANDDMVFMHVDEPGDTGFGTIFTSDDRGIVYSKSLDRHLYTTTGGETDFTNVTSLRGVYITSVLSEDNSIQTMITFDQGGRWTHLRKPENSECDATAKNKNECSLHIHASYSISQKLNVPMAPLSEPNAVGIVIAHGSVGDAISVMVPDVYISDDGGYSWTKMLEGPHYYTILDSGGIIVAIEHSSRPINVIKFSTDEGQCWQTYTFTRDPIYFTGLASEPGARSMNISIWGFTESFLTSQWVSYTIDFKDILERNCEEKDYTIWLAHSTDPEDYEDGCILGYKEQFLRLRKSSMCQNGRDYVVTKQPSICLCSLEDFLCDFGYYRPENDSKCVEQPELKGHDLEFCLYGREEHLTTNGYRKIPGDKCQGGVNPVREVKDLKKKCTSNFLSPEKQNSKSNSVPIILAIVGLMLVTVVAGVLIV
notes: written as the form after propeptide cleavage; also called FLAG-sortilin ECD plus transmembrane domain
For the molecule B1, in data set [1], the binding result is given as “binds”.

With B2, the binding result in data set [1] is on record as “binds”.

B3: FLAG-sortilin S316E (receptor)
chain: SAPDYKDDDDKGEDEECGRVRDFVAKLANNTHQHVFDDLRGSVSLSWVGDSTGVILVLTTFHVPLVIMTFGQSKLYRSEDYGKNFKDITDLINNTFIRTEFGMAIGPENSGKVVLTAEVSGGSRGGRIFRSSDFAKNFVQTDLPFHPLTQMMYSPQNSDYLLALSTENGLWVSKNFGGKWEEIHKAVCLAKWGSDNTIFFTTYANGSCKADLGALELWRTSDLGKSFKTIGVKIYSFGLGGRFLFAEVMADKDTTRRIHVSTDQGDTWSMAQLPSVGQEQFYSILAANDDMVFMHVDEPGDTGFGTIFTSDDRGIVYSKSLDRHLYTTTGGETDFTNVTSLRGVYITSVLSEDNSIQTMITFDQGGRWTHLRKPENSECDATAKNKNECSLHIHASYSISQKLNVPMAPLSEPNAVGIVIAHGSVGDAISVMVPDVYISDDGGYSWTKMLEGPHYYTILDSGGIIVAIEHSSRPINVIKFSTDEGQCWQTYTFTRDPIYFTGLASEPGARSMNISIWGFTESFLTSQWVSYTIDFKDILERNCEEKDYTIWLAHSTDPEDYEDGCILGYKEQFLRLRKSSMCQNGRDYVVTKQPSICLCSLEDFLCDFGYYRPENDSKCVEQPELKGHDLEFCLYGREEHLTTNGYRKIPGDKCQGGVNPVREVKDLKKKCTSNFLSPEKQNSKSNSVPIILAIVGLMLVTVVAGVLIVKKYVCGGRFLVHRYSVLQQHAEANGVDGVDALDTASHTNKSGYHDDSDEDLLE
On to B3, for which the binding result in data set [2] is “binds”.

B4: 6×His-sortilin ICD+TMD C783A (receptor)
chain: SAPHHHHHHNSVPIILAIVGLMLVTVVAGVLIVKKYVAGGRFLVHRYSVLQQHAEANGVDGVDALDTASHTNKSGYHDDSDEDLLE
B4: the binding result in data set [2] is “no binding”.

B5: 6×His-sortilin full-length (Full) (receptor)
chain: SAPHHHHHHGEDEECGRVRDFVAKLANNTHQHVFDDLRGSVSLSWVGDSTGVILVLTTFHVPLVIMTFGQSKLYRSEDYGKNFKDITDLINNTFIRTEFGMAIGPENSGKVVLTAEVSGGSRGGRIFRSSDFAKNFVQTDLPFHPLTQMMYSPQNSDYLLALSTENGLWVSKNFGGKWEEIHKAVCLAKWGSDNTIFFTTYANGSCKADLGALELWRTSDLGKSFKTIGVKIYSFGLGGRFLFASVMADKDTTRRIHVSTDQGDTWSMAQLPSVGQEQFYSILAANDDMVFMHVDEPGDTGFGTIFTSDDRGIVYSKSLDRHLYTTTGGETDFTNVTSLRGVYITSVLSEDNSIQTMITFDQGGRWTHLRKPENSECDATAKNKNECSLHIHASYSISQKLNVPMAPLSEPNAVGIVIAHGSVGDAISVMVPDVYISDDGGYSWTKMLEGPHYYTILDSGGIIVAIEHSSRPINVIKFSTDEGQCWQTYTFTRDPIYFTGLASEPGARSMNISIWGFTESFLTSQWVSYTIDFKDILERNCEEKDYTIWLAHSTDPEDYEDGCILGYKEQFLRLRKSSMCQNGRDYVVTKQPSICLCSLEDFLCDFGYYRPENDSKCVEQPELKGHDLEFCLYGREEHLTTNGYRKIPGDKCQGGVNPVREVKDLKKKCTSNFLSPEKQNSKSNSVPIILAIVGLMLVTVVAGVLIVKKYVCGGRFLVHRYSVLQQHAEANGVDGVDALDTASHTNKSGYHDDSDEDLLE
notes: 6×His inserted after Ser78-Ala79-Pro80; Written as the form after propeptide cleavage; also called 6×His-sortilin WT; 6×His-sortilin wild-type
As to B5, the binding result in data set [3] is on record as “binds”.
